Results reported in patent US20150344570A1 (published 2015).
Residue numbers refer to the chain shown, from its start. In names and notes the source's numbering stands. Where two headings read alike, the source gives them in different places.

Assays:
[1] = target: T1, FcγRIIb extracellular domain with C-terminal His tag (human, UniProt P31994 43-217); assay: SPR (Biacore), antibody captured on chip, soluble FcγR as analyte, 1:1 Langmuir fit
T1 construct: extracellular domain; also called FcgRIIb; CD32B; not shown: His tag at the C terminus
T1 sequence (looked up): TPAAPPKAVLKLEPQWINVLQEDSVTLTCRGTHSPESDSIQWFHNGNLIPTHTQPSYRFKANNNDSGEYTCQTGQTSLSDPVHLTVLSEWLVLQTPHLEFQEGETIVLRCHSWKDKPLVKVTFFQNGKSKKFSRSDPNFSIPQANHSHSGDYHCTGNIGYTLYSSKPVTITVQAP
Method: (§1) Analysis of interaction between objective antibody and the FcγR was carried out using Biacore T100 (GE Healthcare), Biacore T200, Biacore A100, and Biacore 4000. HBS-EP+ (GE Healthcare) was used as the running buffer, and the measurement temperature was set to 25° C. Chips produced by immobilizing the antigen peptide by the amine coupling method to a Series S sensor Chip CM5 (GE Healthcare), chips produced by allowing preliminarily biotinylated antigen peptides to interact with and immobilize onto a Series S Sensor Chip SA (certified) (GE Healthcare), chips produced by immobilizing Protein L (ACTIGEN, BioVision) to Series S Sencor Chip CM5 (GE Healthcare), or chips produced by immobilizing Protein A/G (Thermo Scientific) to Series S Sencor Chip CM5 (GE Healthcare) were used. Antibodies of interest were captured onto these chips, and allowed to interact to each FcγR diluted with running buffer. To regenerate and repeatedly use the chip, the antibodies captured onto the chip were washed off by reacting 10 mM glycine-HCl, pH 1.5.

[2] = target: T2, FcγRIIa H extracellular domain with C-terminal His tag (human, UniProt P12318 34-217); assay: as above
T2 construct: extracellular domain; Soluble receptor, H131 allotype; also called FcgRIIa H; FcgRIIaH; not shown: His tag at the C terminus
T2 sequence (looked up): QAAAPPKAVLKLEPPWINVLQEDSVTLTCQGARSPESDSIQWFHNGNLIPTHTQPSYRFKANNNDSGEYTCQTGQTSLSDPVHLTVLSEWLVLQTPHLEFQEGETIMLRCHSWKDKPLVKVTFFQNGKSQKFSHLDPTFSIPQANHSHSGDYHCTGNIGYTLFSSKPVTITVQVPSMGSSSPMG
Method: as §1

[3] = target: T3, FcγRIIIa V extracellular domain with C-terminal His tag (human, UniProt P08637 17-208); assay: as above
T3 construct: extracellular domain; Soluble receptor, V158 allotype; also called FcgRIIIa V; FcgRIIIaV; not shown: His tag at the C terminus
Method: as §1

[4] = target: T4, FcγRIIIa F extracellular domain with C-terminal His tag (human, UniProt P08637 17-208); assay: as above
T4 construct: extracellular domain; Soluble receptor, F158 allotype; also called FcgRIIIa F; FcgRIIIaF; not shown: His tag at the C terminus
Method: as §1

[5] = target: T5, FcγRIIa R extracellular domain with C-terminal His tag (human, UniProt P12318 34-217); assay: as above
T5 construct: extracellular domain; Soluble receptor, R131 allotype; also called FcgRIIa R; FcgRIIaR; not shown: His tag at the C terminus
T5 sequence (looked up): T2 sequence (looked up) with H134R
Method: as §1

[6] = target: T6, FcγRIa extracellular domain with C-terminal His tag (human, UniProt P12314 16-292); assay: as above
T6 construct: extracellular domain; Soluble receptor expressed in FreeStyle293 cells; used as analyte in Biacore; also called FcgRIa; FcgRI; not shown: His tag at the C terminus
Method: as §1

[7] = target: T3, FcγRIIIa V extracellular domain with …; assay: as above; remark: listed apart in the source
Method: (§2) Specifically, H240-Hl134 (SEQ ID NO: 88) resulting from introduction of L234Y/L235Y/G236W/H268D/S298A into H240-Hl033 and H240-Kn132 (SEQ ID NO: 89) resulting from introduction of K326D/A330M/K334E into H240-Kn033 were constructed according to the method described in Reference Example 1.
as §1

[8] = target: T4, FcγRIIIa F extracellular domain with …; assay: as above; remark: listed apart in the source
Method: as §2, §1

FcgRIIa R = target: T7, FcgRIIa R (human, UniProt P12318 34-217); assay: SPR (Biacore), antibody captured, FcgR as analyte
T7 construct: extracellular domain; also called FcγRIIa R; FcγRIIa type R
T7 sequence (looked up): T2 sequence (looked up) with H134R
Method: as §1

FcgRIIIa V = target: T8, FcgRIIIa V (human, UniProt P08637 17-208); assay: SPR (Biacore), antibody captured, FcgR as analyte
T8 construct: extracellular domain; polymorphic site made after J. Clin. Invest; also called FcγRIIIa V
Method: as §1

FcgRIIa H = target: T9, FcgRIIa H (human, UniProt P12318 34-217); assay: SPR (Biacore), antibody captured, FcgR as analyte
T9 construct: extracellular domain; also called FcγRIIa H; FcγRIIa type H
T9 sequence (looked up): T2 sequence (looked up)
Method: as §1

FcgRIIb [9] = target: T10, FcgRIIb (human, UniProt P31994 43-217); assay: SPR (Biacore), antibody captured, FcgR as analyte
T10 construct: extracellular domain; also called FcγRIIb; CD32B
T10 sequence (looked up): T1 sequence (looked up)
Method: as §1

FcgRIa = target: T11, FcgRIa (human, UniProt P12314 16-292); assay: SPR (Biacore), antibody captured, FcgR as analyte
T11 construct: extracellular domain; also called FcγRIa; FcγRI
Method: as §1

FcgRIIIa F = target: T12, FcgRIIIa F (human, UniProt P08637 17-208); assay: SPR (Biacore), antibody captured, FcgR as analyte
T12 construct: extracellular domain; polymorphic site made after J. Clin. Invest; also called FcγRIIIa F
Method: as §1

FcgRIIaR = target: T13, FcgRIIaR (human, UniProt P12318 34-217); assay: SPR (Biacore); KD of IL6R-B3/IL6R-L divided by KD of the sample
T13 construct: extracellular domain; Allotype R131; also called FcγRIIa R; FcgRIIa type R; not shown: His tag attached to the C terminus
T13 sequence (looked up): T2 sequence (looked up) with H134R

FcgRIIb [10] = target: T14, FcgRIIb (human, UniProt P31994 43-217); assay: as above
T14 construct: extracellular domain; also called FcγRIIb; CD32B; not shown: His tag attached to the C terminus
T14 sequence (looked up): T1 sequence (looked up)

FcgRIIaH = target: T15, FcgRIIaH (human, UniProt P12318 34-217); assay: as above
T15 construct: extracellular domain; Allotype H131; also called FcγRIIa H; FcgRIIa type H; not shown: His tag attached to the C terminus
T15 sequence (looked up): T2 sequence (looked up)

T3 sequence (P08637 17-208 F176V): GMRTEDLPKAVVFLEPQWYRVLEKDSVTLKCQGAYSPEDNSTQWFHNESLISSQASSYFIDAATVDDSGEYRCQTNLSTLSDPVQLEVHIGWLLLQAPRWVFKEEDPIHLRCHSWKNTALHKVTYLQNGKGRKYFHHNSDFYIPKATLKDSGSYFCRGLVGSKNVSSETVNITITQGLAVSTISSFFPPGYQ
T4 sequence (P08637 17-208): as the sequence (P08637 17-208 F176V) above, with V160F counted along it
T11 sequence (P12314 16-292): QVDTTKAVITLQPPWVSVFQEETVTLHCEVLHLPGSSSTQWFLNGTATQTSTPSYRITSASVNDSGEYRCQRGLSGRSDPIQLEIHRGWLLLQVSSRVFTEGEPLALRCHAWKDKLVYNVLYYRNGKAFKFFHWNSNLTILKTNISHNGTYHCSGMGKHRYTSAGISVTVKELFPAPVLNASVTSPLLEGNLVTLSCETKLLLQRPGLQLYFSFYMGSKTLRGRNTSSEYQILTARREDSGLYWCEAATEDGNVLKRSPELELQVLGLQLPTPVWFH
T6 sequence (P12314 16-292): as above
T8 sequence (P08637 17-208 F176V limits assumed): as the sequence (P08637 17-208 F176V) above
T12 sequence (P08637 17-208): as the sequence (P08637 17-208 F176V) above, with V160F counted along it

B1: H240-Kn061/H240-Hl071/L73-k0 (antibody, human IgG1, kappa)
heavy 1: QDQLVQSGAEVKKPGASVKVSCKASGFNIKDTYIQWVRQAPGQGLEWMGRIDPLRKQTKYREKFEGRVTITADTSTNTAYMELSSLRSEDTAVYYCVRSGREFDYWGQGTLVTVSSASTKGPSVFPLAPSSKSTSGGTAALGCLVKDYFPEPVTVSWNSGALTSGVHTFPAVLQSSGLYSLSSVVTVPSSSLGTQTYICNVNHKPSNTKVDKKVEPKSCDKTHTCPPCPAPEYYWGPSVFLFPPKPKDTLMISRTPEVTCVVVDVSDEDPEVKFNWYVDGVEVHNAKTKPREEQYNATYRVVSVLTVLHQDWLNGKEYKCKVSNKALPAPIEKTISKAKGQPREPQVCTLPPSRDELTKNQVSLWCLVKGFYPSDIAVEWESNGQPENNYKTTPPVLDSDGSFFLYSKLTVDKSRWQQGNVFSCSVMHEALHNHYTQKSLSLSP
heavy 2: QDQLVQSGAEVKKPGASVKVSCKASGFNIKDTYIQWVRQAPGQGLEWMGRIDPLRKQTKYREKFEGRVTITADTSTNTAYMELSSLRSEDTAVYYCVRSGREFDYWGQGTLVTVSSASTKGPSVFPLAPSSKSTSGGTAALGCLVKDYFPEPVTVSWNSGALTSGVHTFPAVLQSSGLYSLSSVVTVPSSSLGTQTYICNVNHKPSNTKVDKKVEPKSCDKTHTCPPCPAPELLGGPSVFLFPPKPKDTLMISRTPEVTCVVVDVSHEDPEVKFNWYVDGVEVHNAKTKPREEQYNSTYRVVSVLTVLHQDWLNGKEYKCKVSNDALPMPIEETISKAKGQPREPQVYTLPPSRCELTKNQVSLSCAVKGFYPSDIAVEWESNGQPENNYKTTPPVLDSDGSFFLVSKLTVDKSRWQQGNVFSCSVMHEALHNHYTQKSLSLSP
light: DIQMTQSPSSLSASVGDRVTITCRASQDIHKYIAWYQQKPGQAPRLLIQYTSTLQPGVPSRFSGSGSGTDYTFTISSLQPEDIATYYCLQYEQLRTFGGGTKVEIKRTVAAPSVFIFPPSDEQLKSGTASVVCLLNNFYPREAKVQWKVDNALQSGNSQESVTEQDSKDSTYSLSSTLTLSKADYEKHKVYACEVTHQGLSSPVTKSFNRGEC
notes: Heterodimerized anti-epiregulin IgG1, knobs-into-holes
[1]
  Kd: 1200 nM
[2]
  Kd: 280 nM
[3]
  Kd: 1.8 nM
[4]
  Kd: 5.1 nM
[5]
  Kd: 350 nM
[6]
  Kd: 0.14 nM
[7]
  Kd: 1.8 nM
[8]
  Kd: 5.1 nM

B2: H240-Kn061/H240-Hl071/L73-k0 (antibody, human IgG1, kappa)
heavy 1: B1 heavy 1
heavy 2: B1 heavy 2
light: B1 light
notes: Heterodimerized: L234Y/L235Y/G236W/H268D/S298A in the knob chain, K326D/A330M/K334E in the hole chain
FcgRIIa R
  Kd: 350 nM
FcgRIIIa V
  Kd: 1.8 nM
FcgRIIa H
  Kd: 280 nM
FcgRIIb [9]
  Kd: 1200 nM
FcgRIa
  Kd: 0.14 nM
FcgRIIIa F
  Kd: 5.1 nM

B3: IL6R-BP253/IL6R-L (antibody, human IgG1, kappa)
heavy: QVQLQESGPGLVKPSETLSLTCAVSGHSISHDHAWSWVRQPPGEGLEWIGFISYSGITNYNPSLQGRVTISRDNSKNTLYLQMNSLRAEDTAVYYCARSLARTTAMDYWGEGTLVTVSSASTKGPSVFPLAPSSKSTSGGTAALGCLVKDYFPEPVTVSWNSGALTSGVHTFPAVLQSSGLYSLSSVVTVPSSSLGTQTYICNVNHKPSNTKVDKKVEPKSCDKTHTCPPCPAPELLGGPSVFLFPPKPKDTLMISRTPEVTCVVVDVEHEDPEVKFNWYVDGVEVHNAKTKPREEQYNSTYRVVSVLTVLHQDWLNGKEYKCKVSNKAFPAPIEKTISKAKGQPREPQVYTLPPSRDELTKNQVSLTCLVKGFYPSDIAVEWESNGQPENNYKTTPPVLDSDGSFFLYSKLTVDKSRWQQGNVFSCSVMHEALHNHYTQESLSLSP
light: not shown
notes: Homodimer
FcgRIIaR
  relative KD: 480
FcgRIIb [10]
  relative KD: 349
FcgRIIaH
  relative KD: 0.9
